Patent publication US20200276294, “Methods and Compositions for Activation of Innate Immune Responses Through RIG-I Like Receptor Signaling” (University of Washington through its Center for …, published 2020)
Substitutions are numbered along the chain they refer to.

Key:
[1] = target: T1, RIG-I (full-length) (UniProt O95786 O95786:1-925); assay: EMSA; EC50 over all constructs 2.28-7.31 pmol, individual value in figure only; high signaling
T1 sequence: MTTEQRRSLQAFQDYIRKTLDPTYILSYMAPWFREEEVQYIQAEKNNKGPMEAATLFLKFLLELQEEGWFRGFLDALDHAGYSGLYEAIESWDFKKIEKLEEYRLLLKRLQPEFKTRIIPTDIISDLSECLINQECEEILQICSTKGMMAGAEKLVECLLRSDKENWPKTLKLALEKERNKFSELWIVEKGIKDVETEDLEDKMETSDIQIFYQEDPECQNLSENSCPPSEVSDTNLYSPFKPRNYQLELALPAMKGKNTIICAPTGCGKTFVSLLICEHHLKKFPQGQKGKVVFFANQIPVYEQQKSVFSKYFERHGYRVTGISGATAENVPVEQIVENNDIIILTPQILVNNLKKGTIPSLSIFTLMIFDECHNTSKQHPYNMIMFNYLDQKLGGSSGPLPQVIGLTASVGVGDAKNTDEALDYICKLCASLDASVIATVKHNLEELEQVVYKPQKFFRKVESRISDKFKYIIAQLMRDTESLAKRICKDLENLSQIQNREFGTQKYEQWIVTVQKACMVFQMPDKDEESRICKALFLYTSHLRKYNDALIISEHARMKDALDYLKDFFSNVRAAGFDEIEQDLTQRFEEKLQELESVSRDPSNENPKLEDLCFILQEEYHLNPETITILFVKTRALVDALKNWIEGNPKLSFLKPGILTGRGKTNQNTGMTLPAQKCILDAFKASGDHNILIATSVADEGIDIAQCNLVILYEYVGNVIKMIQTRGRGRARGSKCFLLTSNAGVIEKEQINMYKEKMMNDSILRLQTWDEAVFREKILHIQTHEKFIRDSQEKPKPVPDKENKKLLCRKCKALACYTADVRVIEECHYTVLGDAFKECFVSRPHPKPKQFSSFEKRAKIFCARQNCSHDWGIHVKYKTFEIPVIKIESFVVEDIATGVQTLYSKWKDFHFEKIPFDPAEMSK

[2] = target: T1, RIG-I (full-length); assay: footprint; limited trypsin proteolysis, RD and helicase+CARDs protected; AMP-PNP
[3] = target: T1, RIG-I (full-length); assay: footprint; limited trypsin proteolysis, RD and helicase+CARDs protected; EMSA not possible
Experimental: RIG-I is maintained in an auto-repressed conformation in uninfected cells where the CARDs interact with either the C-terminal repressor domain (RD), the helicase insertion domain (Hel2i), or both domains. […] To further assess RNA interactions with RIG-I, and to determine how HCV PAMP RNA interacts with the helicase domain and RD of RIG-I, limited-trypsin proteolysis of RIG-I/RNA complexes were conducted for nine RNA constructs selected to represent a range of PAMP activity (FIG. 3). RIG-I is highly sensitive to trypsin proteolysis in the absence of PAMP RNA; however, upon binding to an RNA ligand RIG-I undergoes conformational changes that protect the RD and other RNA-bound domains from trypsin digestion.
Various amounts of RNA (0-10 pmol) were mixed with 30 pmol purified RIG-I protein, 2 μl of 5× reaction buffer (20 mM Tris-HCl, pH 8.0; 1.5 mM MgCl₂; 1.5 mM DTT; 70 mM KCl), 0.67 μl AMP-PNP (10 mg/ml), and nuclease-free water up to 10 μl total volume. Reactions were incubated for 5 minutes at room temperature. […] SDS-PAGE Laemmli sample buffer (Bio-Rad) was then added to the samples and reaction products were analyzed by SDS-PAGE followed by silver stain using the SilverQuest silver staining kit (Invitrogen) as per the manufacturer's instructions.

[4] = target: T1, RIG-I (full-length); assay: EMSA; no binding at 0-10 pmol RIG-I; limited RD protection in trypsin assay; conditions: stem-loops
[5] = target: T1, RIG-I (full-length); assay: EMSA; EC10 1.42 pmol RIG-I; >50% of RNA bound at 8 pmol; 10 pmol RNA, 20 mM Tris pH 8.0, 1.5 mM MgCl2, 37 C; conditions: stem-loops

B1: Con1 pU/UC (ssRNA)
RNA: GGCCAUCCUGUUUUUUUCCCUUUUUUUUUUUCUUUUUUUUUUUUUUUUUUUUUUUUUUUUUUUUUUCUCCUUUUUUUUUCCUCUUUUUUUCCUUUUCUUUCCUUU
modifications: 5'-triphosphate; three G at 5' end
B1: binds [1].

B2: poly-U 62-C (ssRNA)
RNA: UUUUUUUUUUUUUUUUUUUUUUUUUUUUUUUUUUUUUUUUUUUUCUUUUUUUUUUUUUUUUU
modifications: 5'-triphosphate; three G at 5' end
B2: binds [2].

B3: poly-U 62 (ssRNA)
RNA: B2 RNA with C45U
modifications: 5'-triphosphate; three G at 5' end
B3: binds [3].

B4: X-region (ssRNA)
RNA: GGUGGCUCCAUCUUAGCCCUAGUCACGGCUAGCUGUGAAAGGUCCGUGAGCCGCUUGACUGCAGAGAGUGCUGAUACUGGCCUCUCUGCAGAUCAAGU
modifications: 5'-triphosphate
B4: no binding [4].

B5: U17core (ssRNA)
RNA: GGCCAUCCUGUUUUUUUCCCUUUUUUUUUUUCUUUUUUUUUUUUUUUUUCUCCUUUUUUUUUCCUCUUUUUUUCCUUUUCUUUCCUUUCCCCCCCCCCCCCCCCC
modifications: 5'-triphosphate; three G at 5' end
B5: binds [2].

B6: JFH1 pU/UC (ssRNA)
RNA: ACUGUUCCUUUUUUUUUUUUUUUUUUUUUUUUUUUUUUUUUUUUUUUUUUUCUUUUUUUUUUUUUUCCCUCUUUCUUCCCUUCUCAUCUUAUUCUACUUUCUUUCUU
modifications: 5'-triphosphate; three G at 5' end
B6: binds [2].

B7: X-region-U34 (ssRNA)
RNA: GGGUGGCUCCAUCUUAGCCCUAGUCACGGCUAGCUGUGAAAGGUCCGUGAGCUUUUUUUUUUUUUUUUUUUUUUUUUUUUUUUUUUCGCUUGACUGCAGAGAGUGCUGAUACUGGCCUCUCUGCAGAUCAAGU
modifications: 5'-triphosphate
Work on B7 yielded an EC50 [5] of less than 8 pmol.
